PMC8688574 (The Journal of Biological Chemistry, 2021)

Tests used:
[1] = target: ATL1 N417ins catalytic core C375A K400C, labelled on the middle domain with AlexaFluor-488 or AlexaFluor-647; assay: intermolecular FRET (middle domain FRET); conditions: equilibrated for 1 h before measurement, read off a plot
[2] = target: ATL1 N417ins catalytic core, G domain FRET construct; assay: intermolecular FRET (G domain FRET); conditions: equilibrated for 1 h before measurement, read off a plot
[3] = target: T1, catalytic core of human ATL1 WT / N417ins (Homo sapiens, UniProt Q8WXF7); assay: SEC-MALS, nucleotide-dependent dimerization; type: binding; conditions: 2 mM GppNHp; 4 mM MgCl2, pH 7.5; 50 μM protein
T1 construct: catalytic core (G + middle domains), WT residues 1-449 (N417ins 1-450), C-terminal His10 tag kept, E. coli BL21(DE3)
T1 sequence (Q8WXF7 with tags, fused parts or gaps INS416N): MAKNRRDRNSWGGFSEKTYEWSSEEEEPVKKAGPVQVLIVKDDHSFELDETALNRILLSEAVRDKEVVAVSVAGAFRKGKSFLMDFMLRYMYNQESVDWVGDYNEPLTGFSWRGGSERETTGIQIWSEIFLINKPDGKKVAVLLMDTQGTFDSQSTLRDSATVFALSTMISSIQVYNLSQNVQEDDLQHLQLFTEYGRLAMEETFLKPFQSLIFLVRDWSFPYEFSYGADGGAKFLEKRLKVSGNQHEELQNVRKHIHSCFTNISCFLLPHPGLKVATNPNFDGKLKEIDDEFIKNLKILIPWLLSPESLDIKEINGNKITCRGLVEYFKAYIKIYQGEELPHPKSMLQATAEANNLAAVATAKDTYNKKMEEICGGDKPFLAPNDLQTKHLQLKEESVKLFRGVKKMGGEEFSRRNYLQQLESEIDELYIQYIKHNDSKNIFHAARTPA

[4] = target: T2, catalytic core of human ATL1 WT / N417ins (Homo sapiens, UniProt Q8WXF7); assay: SEC-MALS, nucleotide-dependent dimerization; type: binding; conditions: 2 mM GppNHp; 4 mM MgCl2, pH 7.5; 50 μM protein; remark: listed apart in the source
T2 construct: catalytic core (G + middle domains), WT residues 1-449 (N417ins 1-450), C-terminal His10 tag kept, E. coli BL21(DE3)
T2 sequence (Q8WXF7 1-449): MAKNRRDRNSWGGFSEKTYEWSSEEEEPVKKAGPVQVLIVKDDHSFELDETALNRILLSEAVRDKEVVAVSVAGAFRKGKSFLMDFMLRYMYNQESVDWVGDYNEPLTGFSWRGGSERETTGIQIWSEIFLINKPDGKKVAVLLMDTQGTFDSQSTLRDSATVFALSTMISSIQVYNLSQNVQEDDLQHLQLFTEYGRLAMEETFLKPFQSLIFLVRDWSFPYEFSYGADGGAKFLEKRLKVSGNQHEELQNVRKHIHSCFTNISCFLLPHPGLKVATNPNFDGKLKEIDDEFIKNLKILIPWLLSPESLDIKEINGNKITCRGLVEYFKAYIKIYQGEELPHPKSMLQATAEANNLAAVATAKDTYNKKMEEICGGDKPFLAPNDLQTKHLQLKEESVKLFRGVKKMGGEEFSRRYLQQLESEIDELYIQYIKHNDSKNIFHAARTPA

[5] = target: T2, catalytic core of human ATL1 WT / N417ins; assay: limited proteolysis (proteinase K) protection; type: binding; conditions: 2 mM GDP; MgCl2, pH 7.5; on ice
[6] = target: the molecule itself; assay: SEC-MALS; 50 μM protein loaded, preincubated with 2 mM GppNHp; Superdex Increase 200 10/300 GL; 25 mM Tris-HCl pH 7.5, 100 mM NaCl, 2 mM EGTA, 4 mM MgCl2
[7] = apo (no nucleotide), parent: est. 0.0083

Molecule “ATL1 WT catalytic core, middle domain FRET construct N417ins” has a response ([1]; GDP, parent: est. 0.0098) of 0.011, a response ([1]; GDP•AlF4-, parent: est. 0.061) of 0.066 and a response [1, 7] of 0.009.

“ATL1 WT catalytic core, G domain FRET construct N417ins” was tested, and the response ([2]; GDP, parent: est. 0.014) was 0.011, the response ([2]; GDP•AlF4-, parent: est. 0.076) was 0.078 and the response [2, 7] was 0.009.

`Nc1nc2c(ncn2[C@@H]2O[C@H](COP(=O)(O)OP(=O)(O)NP(=O)(O)O)[C@@H](O)[C@H]2O)c(=O)[nH]1` [GppNHp] was tested, and the “SEC-MALS, nucleotide-dependent dimerization” value [3] was “Only a minor fraction of the mutant protein eluted as a monomer upon incubation with GppNHp” and the “SEC-MALS, nucleotide-dependent dimerization” value [4] was “dimerized in the presence of GppNHp and GDP•AlF4^−”.

With `Nc1nc2c(ncn2[C@@H]2O[C@H](COP(=O)(O)OP(=O)(O)O)[C@@H](O)[C@H]2O)c(=O)[nH]1` [GDP] the “limited proteolysis (proteinase K) protection” value [5] was “when bound to GDP, the WT protein is largely protected from degradation”.

B1: human ATL1 N417ins catalytic core (residues 1–450) (domain or fragment, UniProt Q8WXF7-1 1-450, looked up)
chain: MAKNRRDRNSWGGFSEKTYEWSSEEEEPVKKAGPVQVLIVKDDHSFELDETALNRILLSEAVRDKEVVAVSVAGAFRKGKSFLMDFMLRYMYNQESVDWVGDYNEPLTGFSWRGGSERETTGIQIWSEIFLINKPDGKKVAVLLMDTQGTFDSQSTLRDSATVFALSTMISSIQVYNLSQNVQEDDLQHLQLFTEYGRLAMEETFLKPFQSLIFLVRDWSFPYEFSYGADGGAKFLEKRLKVSGNQHEELQNVRKHIHSCFTNISCFLLPHPGLKVATNPNFDGKLKEIDDEFIKNLKILIPWLLSPESLDIKEINGNKITCRGLVEYFKAYIKIYQGEELPHPKSMLQATAEANNLAAVATAKDTYNKKMEEICGGDKPFLAPNDLQTKHLQLKEESVKLFRGVKKMGGEEFSRRNYLQQLESEIDELYIQYIKHNDSKNIFHAARTPAT
notes: atlastin-1 (ATL1/SPG3A), human, catalytic core with the patient's in-frame insertion of an asparagine between R416 and Y417; residues 1-450. numbers count on: the mutant protein with the extra residue (1-449 of the wild type plus N417); pET21 vector; construct for enzyme assays, SEC-MALS and tethering; Theoretical monomer mass 52.9 kDa; also called N417ins mutant protein; …
With B1 the “stoichiometry N” value [6] was 2.

B2: human ATL1 WT catalytic core (residues 1–449) (domain or fragment, UniProt Q8WXF7-1 1-449, looked up)
chain: T2 sequence (Q8WXF7 1-449)
notes: atlastin-1 (ATL1/SPG3A), human, catalytic core of G and middle domains, residues 1-449; pET21 vector; Monomer without nucleotide or with GDP, dimer with GppNHp or GDP•AlF4-; Theoretical monomer mass 52.8 kDa; also called atlastin-1; SPG3A; source: E. coli BL21(DE3), purified (Ni-NTA, desalting, S200 gel filtration); not shown: His10, C-terminal, kept
For B2, the “stoichiometry N” value [6] was 2.
